The source of these data is paper PMC9418156.

Holding throughout (conditions): glycan lost; control: wild type
A short description of series [1]: cycloheximide chase, anti-FLAG blot.
The nature of series [2]: surface biotinylation, anti-LAT1 blot.
The nature of series [3]: brefeldin A washout, confocal time course.
Series [4] is described as follows: cell surface biotinylation, anti-FLAG blot.
Series [5] can be described thus: co-transfection with HA-LAT1, brefeldin washout, confocal.
The nature of series [6]: confocal, surface anti-CD98 vs anti-FLAG, HEK293.

B1: CD98 (SLC3A2, 4F2hc): Qm (protein)
parent chain: MELQPPEASIAVVSIPRQLPGSHSEAGVQGLSAGDDSELGSHCVAQTGLELLASGDPLPSASQNAEMIETGSDCVTQAGLQLLASSDPPALASKNAEVTGTMSQDTEVDMKEVELNELEPEKQPMNAASGAAMSLAGAEKNGLVKIKVAEDEAEAAAAAKFTGLSKEELLKVAGSPGWVRTRWALLLLFWLGWLGMLAGAVVIIVRAPRCRELPAQKWWHTGALYRIGDLQAFQGHGAGNLAGLKGRLDYLSSLKVKGLVLGPIHKNQKDDVAQTDLLQIDPNFGSKEDFDSLLQSAKKKSIRVILDLTPNYRGENSWFSTQVDTVATKVKDALEFWLQAGVDGFQVRDIENLKDASSFLAEWQNITKGFSEDRLLIAGTNSSDLQQILSLLESNKDLLLTSSYLSDSGSTGEHTKSLVTQYLNATGNRWCSWSLSQARLLTSFLPAQLLRLYQLMLFTLPGTPVFSYGDEIGLDAAALPGQPMEAPVMLWDESSFPDIPGAVSANMTVKGQSEDPGSLLSLFRRLSDQRSKERSLLHGDFHAFSAGPGLFSYIRHWDQNERFLVVLNFGDVGLSAGLQASDLPASASLPAKADLLLSTQPGREEGSPLELERLKLEPHEGLLLRFPYAA
As for B1, the “degradation_or_half_life, other: percent of initial protein after 6 h” value in series [1] is given as “decreases, <20 vs >50”. The “other: routing of partner LAT1 to plasma membrane” value is given as “abolishes” in series [2] and “decreases” in series [5]. Moreover, the localisation_or_trafficking entry in series [3] and in series [4] was “decreases” throughout.

B2: CD98 (SLC3A2, 4F2hc): N381Q (protein)
parent chain: MELQPPEASIAVVSIPRQLPGSHSEAGVQGLSAGDDSELGSHCVAQTGLELLASGDPLPSASQNAEMIETGSDCVTQAGLQLLASSDPPALASKNAEVTGTMSQDTEVDMKEVELNELEPEKQPMNAASGAAMSLAGAEKNGLVKIKVAEDEAEAAAAAKFTGLSKEELLKVAGSPGWVRTRWALLLLFWLGWLGMLAGAVVIIVRAPRCRELPAQKWWHTGALYRIGDLQAFQGHGAGNLAGLKGRLDYLSSLKVKGLVLGPIHKNQKDDVAQTDLLQIDPNFGSKEDFDSLLQSAKKKSIRVILDLTPNYRGENSWFSTQVDTVATKVKDALEFWLQAGVDGFQVRDIENLKDASSFLAEWQNITKGFSEDRLLIAGTNSSDLQQILSLLESNKDLLLTSSYLSDSGSTGEHTKSLVTQYLNATGNRWCSWSLSQARLLTSFLPAQLLRLYQLMLFTLPGTPVFSYGDEIGLDAAALPGQPMEAPVMLWDESSFPDIPGAVSANMTVKGQSEDPGSLLSLFRRLSDQRSKERSLLHGDFHAFSAGPGLFSYIRHWDQNERFLVVLNFGDVGLSAGLQASDLPASASLPAKADLLLSTQPGREEGSPLELERLKLEPHEGLLLRFPYAA
For B2, the localisation_or_trafficking entry in series [6] was “no change”.

B3: CD98 (SLC3A2, 4F2hc): N424Q (protein)
parent chain: MELQPPEASIAVVSIPRQLPGSHSEAGVQGLSAGDDSELGSHCVAQTGLELLASGDPLPSASQNAEMIETGSDCVTQAGLQLLASSDPPALASKNAEVTGTMSQDTEVDMKEVELNELEPEKQPMNAASGAAMSLAGAEKNGLVKIKVAEDEAEAAAAAKFTGLSKEELLKVAGSPGWVRTRWALLLLFWLGWLGMLAGAVVIIVRAPRCRELPAQKWWHTGALYRIGDLQAFQGHGAGNLAGLKGRLDYLSSLKVKGLVLGPIHKNQKDDVAQTDLLQIDPNFGSKEDFDSLLQSAKKKSIRVILDLTPNYRGENSWFSTQVDTVATKVKDALEFWLQAGVDGFQVRDIENLKDASSFLAEWQNITKGFSEDRLLIAGTNSSDLQQILSLLESNKDLLLTSSYLSDSGSTGEHTKSLVTQYLNATGNRWCSWSLSQARLLTSFLPAQLLRLYQLMLFTLPGTPVFSYGDEIGLDAAALPGQPMEAPVMLWDESSFPDIPGAVSANMTVKGQSEDPGSLLSLFRRLSDQRSKERSLLHGDFHAFSAGPGLFSYIRHWDQNERFLVVLNFGDVGLSAGLQASDLPASASLPAKADLLLSTQPGREEGSPLELERLKLEPHEGLLLRFPYAA
In the case of B3, the localisation_or_trafficking entry in series [6] was “no change”.

B4: CD98 (SLC3A2, 4F2hc): Qm (N365/381/424/506Q) (protein)
parent chain: MELQPPEASIAVVSIPRQLPGSHSEAGVQGLSAGDDSELGSHCVAQTGLELLASGDPLPSASQNAEMIETGSDCVTQAGLQLLASSDPPALASKNAEVTGTMSQDTEVDMKEVELNELEPEKQPMNAASGAAMSLAGAEKNGLVKIKVAEDEAEAAAAAKFTGLSKEELLKVAGSPGWVRTRWALLLLFWLGWLGMLAGAVVIIVRAPRCRELPAQKWWHTGALYRIGDLQAFQGHGAGNLAGLKGRLDYLSSLKVKGLVLGPIHKNQKDDVAQTDLLQIDPNFGSKEDFDSLLQSAKKKSIRVILDLTPNYRGENSWFSTQVDTVATKVKDALEFWLQAGVDGFQVRDIENLKDASSFLAEWQNITKGFSEDRLLIAGTNSSDLQQILSLLESNKDLLLTSSYLSDSGSTGEHTKSLVTQYLNATGNRWCSWSLSQARLLTSFLPAQLLRLYQLMLFTLPGTPVFSYGDEIGLDAAALPGQPMEAPVMLWDESSFPDIPGAVSANMTVKGQSEDPGSLLSLFRRLSDQRSKERSLLHGDFHAFSAGPGLFSYIRHWDQNERFLVVLNFGDVGLSAGLQASDLPASASLPAKADLLLSTQPGREEGSPLELERLKLEPHEGLLLRFPYAA
On to B4, for which the localisation_or_trafficking entry in series [6] is listed as “decreases”.

B5: CD98 (SLC3A2, 4F2hc): Dm (N381/424Q) (protein)
parent chain: MELQPPEASIAVVSIPRQLPGSHSEAGVQGLSAGDDSELGSHCVAQTGLELLASGDPLPSASQNAEMIETGSDCVTQAGLQLLASSDPPALASKNAEVTGTMSQDTEVDMKEVELNELEPEKQPMNAASGAAMSLAGAEKNGLVKIKVAEDEAEAAAAAKFTGLSKEELLKVAGSPGWVRTRWALLLLFWLGWLGMLAGAVVIIVRAPRCRELPAQKWWHTGALYRIGDLQAFQGHGAGNLAGLKGRLDYLSSLKVKGLVLGPIHKNQKDDVAQTDLLQIDPNFGSKEDFDSLLQSAKKKSIRVILDLTPNYRGENSWFSTQVDTVATKVKDALEFWLQAGVDGFQVRDIENLKDASSFLAEWQNITKGFSEDRLLIAGTNSSDLQQILSLLESNKDLLLTSSYLSDSGSTGEHTKSLVTQYLNATGNRWCSWSLSQARLLTSFLPAQLLRLYQLMLFTLPGTPVFSYGDEIGLDAAALPGQPMEAPVMLWDESSFPDIPGAVSANMTVKGQSEDPGSLLSLFRRLSDQRSKERSLLHGDFHAFSAGPGLFSYIRHWDQNERFLVVLNFGDVGLSAGLQASDLPASASLPAKADLLLSTQPGREEGSPLELERLKLEPHEGLLLRFPYAA
Take B5: the localisation_or_trafficking result in series [6] was “changes”.

B6: CD98 (SLC3A2, 4F2hc): N365Q (protein)
parent chain: MELQPPEASIAVVSIPRQLPGSHSEAGVQGLSAGDDSELGSHCVAQTGLELLASGDPLPSASQNAEMIETGSDCVTQAGLQLLASSDPPALASKNAEVTGTMSQDTEVDMKEVELNELEPEKQPMNAASGAAMSLAGAEKNGLVKIKVAEDEAEAAAAAKFTGLSKEELLKVAGSPGWVRTRWALLLLFWLGWLGMLAGAVVIIVRAPRCRELPAQKWWHTGALYRIGDLQAFQGHGAGNLAGLKGRLDYLSSLKVKGLVLGPIHKNQKDDVAQTDLLQIDPNFGSKEDFDSLLQSAKKKSIRVILDLTPNYRGENSWFSTQVDTVATKVKDALEFWLQAGVDGFQVRDIENLKDASSFLAEWQNITKGFSEDRLLIAGTNSSDLQQILSLLESNKDLLLTSSYLSDSGSTGEHTKSLVTQYLNATGNRWCSWSLSQARLLTSFLPAQLLRLYQLMLFTLPGTPVFSYGDEIGLDAAALPGQPMEAPVMLWDESSFPDIPGAVSANMTVKGQSEDPGSLLSLFRRLSDQRSKERSLLHGDFHAFSAGPGLFSYIRHWDQNERFLVVLNFGDVGLSAGLQASDLPASASLPAKADLLLSTQPGREEGSPLELERLKLEPHEGLLLRFPYAA
As for B6, the localisation_or_trafficking result in series [6] is given as “no change”.

B7: CD98 (SLC3A2, 4F2hc): N506Q (protein)
parent chain: MELQPPEASIAVVSIPRQLPGSHSEAGVQGLSAGDDSELGSHCVAQTGLELLASGDPLPSASQNAEMIETGSDCVTQAGLQLLASSDPPALASKNAEVTGTMSQDTEVDMKEVELNELEPEKQPMNAASGAAMSLAGAEKNGLVKIKVAEDEAEAAAAAKFTGLSKEELLKVAGSPGWVRTRWALLLLFWLGWLGMLAGAVVIIVRAPRCRELPAQKWWHTGALYRIGDLQAFQGHGAGNLAGLKGRLDYLSSLKVKGLVLGPIHKNQKDDVAQTDLLQIDPNFGSKEDFDSLLQSAKKKSIRVILDLTPNYRGENSWFSTQVDTVATKVKDALEFWLQAGVDGFQVRDIENLKDASSFLAEWQNITKGFSEDRLLIAGTNSSDLQQILSLLESNKDLLLTSSYLSDSGSTGEHTKSLVTQYLNATGNRWCSWSLSQARLLTSFLPAQLLRLYQLMLFTLPGTPVFSYGDEIGLDAAALPGQPMEAPVMLWDESSFPDIPGAVSANMTVKGQSEDPGSLLSLFRRLSDQRSKERSLLHGDFHAFSAGPGLFSYIRHWDQNERFLVVLNFGDVGLSAGLQASDLPASASLPAKADLLLSTQPGREEGSPLELERLKLEPHEGLLLRFPYAA
On to B7, for which, in series [6], the localisation_or_trafficking result is reported as “no change”.

B8: CD98 (SLC3A2, 4F2hc): Tm (N365/381/424Q) (protein)
parent chain: MELQPPEASIAVVSIPRQLPGSHSEAGVQGLSAGDDSELGSHCVAQTGLELLASGDPLPSASQNAEMIETGSDCVTQAGLQLLASSDPPALASKNAEVTGTMSQDTEVDMKEVELNELEPEKQPMNAASGAAMSLAGAEKNGLVKIKVAEDEAEAAAAAKFTGLSKEELLKVAGSPGWVRTRWALLLLFWLGWLGMLAGAVVIIVRAPRCRELPAQKWWHTGALYRIGDLQAFQGHGAGNLAGLKGRLDYLSSLKVKGLVLGPIHKNQKDDVAQTDLLQIDPNFGSKEDFDSLLQSAKKKSIRVILDLTPNYRGENSWFSTQVDTVATKVKDALEFWLQAGVDGFQVRDIENLKDASSFLAEWQNITKGFSEDRLLIAGTNSSDLQQILSLLESNKDLLLTSSYLSDSGSTGEHTKSLVTQYLNATGNRWCSWSLSQARLLTSFLPAQLLRLYQLMLFTLPGTPVFSYGDEIGLDAAALPGQPMEAPVMLWDESSFPDIPGAVSANMTVKGQSEDPGSLLSLFRRLSDQRSKERSLLHGDFHAFSAGPGLFSYIRHWDQNERFLVVLNFGDVGLSAGLQASDLPASASLPAKADLLLSTQPGREEGSPLELERLKLEPHEGLLLRFPYAA
In the case of B8, in series [6], the localisation_or_trafficking result is recorded as “changes”.
